The target in the data set is hUNG2 N-terminal domain (NTD) (Homo sapiens, UniProt P13051 1-92). The data set is described as follows: fluorescence anisotropy. (In general: Fluorescence polarisation rises when a labelled molecule tumbles more slowly, as on binding a larger partner.)

From publication PMC6990647 come the findings set out here.

The term Kd denotes the concentration at which binding is half-saturated.

Sequence of hUNG2 N-terminal domain (NTD) (P13051 1-92): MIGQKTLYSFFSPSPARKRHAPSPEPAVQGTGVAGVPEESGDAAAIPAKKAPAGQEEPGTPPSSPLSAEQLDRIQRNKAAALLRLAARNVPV

B1: NS19FAM duplex (dsDNA)
DNA 1: GCTCTGTACATGAGCAGTG
DNA 2: CACTGCTCATGTACAGAGC
B1 came in with a dissociation constant Kd of 10 µM.

The molecule GCTCTGTACATGAGCAGTG (ssDNA) [NS19FAM ssDNA] gave a Kd of 23 µM.
